Data taken from US20100233095A1 (ADLYFE, published 2010).
pyrene = pyrene (fluorescent label); PBA = not defined here

What was measured:
[1] = molecular target: T1, Aβ42 oligomer (soluble Aβ42 target protein oligomers) (UniProt P05067 672-713); assay: pyrene fluorescence of di-pyrene Peptide 45 with 0, 0.03, 0.1 and 0.3 µM Aβ42 oligomer; free peptide 9:1
T1 construct: domain: Aβ1-42; Soluble oligomeric aggregate; also called synthetic Aβ42 oligomer

[2] = molecular target: T1, Aβ42 oligomer (soluble Aβ42 target …); assay: G25 size exclusion spin column, fluorescence of the eluant; 2 µM probe, 2 µM oligomer
Protocol: Labeled peptide probe (SEQ ID NO:1, 2 μM) and target protein (Aβ oligomers, 2 μM) are incubated together for 90 minutes in Hepes buffer (10 mM, pH 7.0) and then loaded onto a G25 size exclusion column, which has a 5000 Da molecular weight cutoff. The column is subjected to centrifugation at 735×g for 2 minutes. Eluants and column material are analyzed by a TECAN fluorimeter. This method is illustrated in FIG. 14A. Eluant also may be analyzed by SDS-PAGE (not shown).

[3] = molecular target: T2, biotinylated Aβ 42 oligomer (UniProt P05067 672-713, biotin (site not stated)); assay: streptavidin bead capture of biotinylated oligomer, SDS-PAGE
T2 construct: domain: Aβ1-42; Captured on streptavidin-coated magnetic beads; also called biotin-labeled soluble Aβ42 target protein oligomers; synthetic biotinylated oligomer
Protocol: Labeled peptide probe (SEQ ID NO:1, 2 μM) and biotinylated target protein (Aβ 42 oligomers, 2 μM) are incubated in PBS for 30 minutes. The mixture is then subjected to a capture step using magnetic beads coated with streptavidin. The beads are washed with PBS to remove unbound material and the captured material is analyzed by SDS-PAGE.

[4] = molecular target: T3, Aβ42 Fiber (insoluble Aβ42 target protein fibers) (UniProt P05067 672-713); assay: centrifugation of insoluble fibers with soluble probe, SDS-PAGE of the pellet, 40% TFE
T3 construct: domain: Aβ1-42; Insoluble fibrillar aggregate of Aβ42; also called Aβ 1-42 fiber; Aβ42 fibers
Protocol: Aβ42 Fiber (target protein) and peptide probe (SEQ ID NO:1) are incubated for 3 hours in the presence of increasing amounts of trifluoroethanol (TFE). The samples are centrifuged at 17,000×g for 30 minutes, and the pellets are denatured in sample buffer and analyzed by SDS-PAGE. Reference samples (Input) are shown for comparison. In this example, binding of target protein and peptide probe is clearly observed at the 40% TFE condition (compare left and right panels at 40% TFE, where the “peptide” band appears in the left panel but not the right panel).

[5] = molecular target: T1, Aβ42 oligomer (soluble Aβ42 target …); assay: pyrene fluorescence, aqueous assay; transition from excimer to self-fluorescence
[6] = molecular target: T4, streptavidin (on magnetic dynabeads) (UniProt P22629 37-163, limits assumed); assay: streptavidin bead pull-down (protocol B) without biotinylated oligomer, SDS-PAGE
T4 construct: Capture reagent; also called streptavidin bead; magnetic streptavidin beads
Protocol: In an alternative assay with Peptide 22 (protocol B, illustrated in FIG. 5A), […] biotinylated Aβ 42 oligomer was incubated with pre-washed streptavidin dynabeads at room temperature for 30 minutes. The complex was then washed two times with PBS buffer, and resuspended in PBS buffer. Equal volumes of bound oligomer and 4 μM labeled peptide probe (SEQ ID NO:2) were then combined, and incubated for 30 minutes at room temperature. Unbound material was then washed away with three PBS washes, followed by the collection of the bead complexes by magnet. The complex was then resuspended in 1×LDS buffer, boiled for 10 minutes, and loaded on 10% Bis-Tris gels.

[7] = molecular target: T5, bovine serum albumin (control substrate) (bovine, UniProt P02769 25-607); assay: pyrene monomer fluorescence of di-pyrene Peptide 22 over time, in water, substrate 0.03-0.3 uM
T5 construct: also called BSA
Protocol: FIG. 12 illustrates the specificity of Peptide 22 (SEQ ID NO:2) for soluble Aβ oligomers. The first two panels show the dose-dependent increase in pyrene monomer signal when Peptide 22 is incubated with soluble Aβ oligomers prepared by two different methods. The next two panels show no change in fluorescence when Peptide 22 is incubated with Aβ40 monomers and Aβ42 monomers. […] The last two panels show no change in fluorescence when Peptide 22 is incubated with control solutions (BSA or Anhydrase). […] (dotted line=0.3 uM substrate; dashed line=0.1 uM; dashed/dot line=0.03 uM; solid line=p22 alone).
Peptide 22 (100 nM) is incubated in water for 15 hours at room temperature with equimolar concentrations ([…]) of several potential A0 substrates: Aβ42 oligomer (type 1); Aβ42 oligomer (type 2); Aβ 1-42 monomer; Aβ 1-40 monomer; Aβ 1-42 fiber; Aβ 1-40 fiber; bovine serum albumin (control substrate); and carbonic anhydrase (control substrate).

T1 sequence (P05067 672-713 limits assumed): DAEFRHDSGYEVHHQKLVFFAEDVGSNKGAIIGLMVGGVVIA
T3 sequence (P05067 672-713 limits assumed): as above
T2 sequence (P05067 672-713 limits assumed): as above
T4 sequence (P22629 37-163 limits assumed): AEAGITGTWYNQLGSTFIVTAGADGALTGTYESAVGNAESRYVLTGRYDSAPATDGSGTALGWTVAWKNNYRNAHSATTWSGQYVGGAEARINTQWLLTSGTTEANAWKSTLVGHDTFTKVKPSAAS
T5 sequence (P02769 25-607 limits assumed): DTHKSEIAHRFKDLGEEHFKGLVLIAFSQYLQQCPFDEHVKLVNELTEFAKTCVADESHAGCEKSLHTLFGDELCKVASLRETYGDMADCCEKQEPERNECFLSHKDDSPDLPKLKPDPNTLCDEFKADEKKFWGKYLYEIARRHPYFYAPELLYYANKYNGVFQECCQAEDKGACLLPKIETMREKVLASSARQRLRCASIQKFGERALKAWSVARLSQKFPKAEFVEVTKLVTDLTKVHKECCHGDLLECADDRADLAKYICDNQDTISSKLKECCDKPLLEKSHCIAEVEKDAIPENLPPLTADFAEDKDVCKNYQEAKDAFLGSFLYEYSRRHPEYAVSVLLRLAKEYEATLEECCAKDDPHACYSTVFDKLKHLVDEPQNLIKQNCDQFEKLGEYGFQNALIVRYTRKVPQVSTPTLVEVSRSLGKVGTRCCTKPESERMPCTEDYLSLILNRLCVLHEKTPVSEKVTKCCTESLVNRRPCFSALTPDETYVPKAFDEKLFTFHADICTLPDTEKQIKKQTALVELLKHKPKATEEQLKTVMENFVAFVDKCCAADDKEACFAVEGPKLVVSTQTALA

For pyrene-KAAAKLVFFAEDVGSNKHAIIELMK-NH2 (not fully specified (residue 25), also called P45) [Peptide 45 (SEQ ID NO:4)], the “excimer:monomer fluorescence ratio” value [1] was 20 ratio (x:1).

B1: peptide probe of SEQ ID NO:1 (WT reference sequence, Aβ protein residues 16-35 with added C-terminal Lys) (peptide)
peptide: {PBA}-KLVFFAEDVGSNKGAIIGLMK(PBA)-NH2
modifications: reading uncertain; also: labels are the default, some assays say only 'labeled', centrifugation assay may use unlabeled peptide
notes: Synthetic probe; also called wildtype
B1: binds [2]; binds [3]; binds [4].

pyrene-KLVFFAEDVGSNKRAIIELMK(pyrene)-NH2 (also called P22 v.1; Peptide 22 var) [Peptide 22 variation 1 (SEQ ID NO:14)]: binds [5].

B2: Peptide 22 (SEQ ID NO:2) (peptide)
peptide: pyrene-KLVFFAEDVGSNKHAIIELMK(pyrene)-NH2
notes: Designed variant of the Aβ 16-35 probe with a salt bridge; also called P22; p22
B2: no binding (tested: 4 µM) [6]; no binding (tested: 0.3 uM) [7].

pyrene-KLVFFAEDVGSNKKAIIELMK(pyrene)-NH2 (also called P22 v.2; Peptide 22 var) [Peptide 22 variation 2 (SEQ ID NO:15)]: binds [5].
